One molecule from patent publication US20110143953A1 can be followed below.

Experiment [1] has as its target transferrin, P02787. The experiment in a line: SPR, transferrin immobilized, Kd from kinetics. In general terms: SPR reads the build-up and loss of mass on a sensor chip optically.
For experiment [2], the target named is transferrin, P02787. The experiment in a line: SPR.
In experiment [3] the target is AKT1 (as used in SPR), P31749. The experiment in a line: SPR.
Chain of AKT1 (as used in SPR), P31749 (P31749 whole entry): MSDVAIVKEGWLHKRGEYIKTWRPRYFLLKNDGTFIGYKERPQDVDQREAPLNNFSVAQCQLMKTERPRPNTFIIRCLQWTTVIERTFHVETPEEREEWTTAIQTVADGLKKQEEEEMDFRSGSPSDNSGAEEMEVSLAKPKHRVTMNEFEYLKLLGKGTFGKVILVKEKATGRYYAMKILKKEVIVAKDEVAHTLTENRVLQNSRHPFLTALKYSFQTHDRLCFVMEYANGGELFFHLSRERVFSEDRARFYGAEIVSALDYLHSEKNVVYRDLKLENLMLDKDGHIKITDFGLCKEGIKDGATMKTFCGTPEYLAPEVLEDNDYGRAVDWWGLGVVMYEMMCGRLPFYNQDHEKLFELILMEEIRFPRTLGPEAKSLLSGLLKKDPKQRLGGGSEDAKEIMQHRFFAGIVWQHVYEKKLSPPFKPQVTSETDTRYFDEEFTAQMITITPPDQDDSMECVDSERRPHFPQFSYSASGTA

Chain of transferrin, P02787 (P02787 20-698 limits assumed): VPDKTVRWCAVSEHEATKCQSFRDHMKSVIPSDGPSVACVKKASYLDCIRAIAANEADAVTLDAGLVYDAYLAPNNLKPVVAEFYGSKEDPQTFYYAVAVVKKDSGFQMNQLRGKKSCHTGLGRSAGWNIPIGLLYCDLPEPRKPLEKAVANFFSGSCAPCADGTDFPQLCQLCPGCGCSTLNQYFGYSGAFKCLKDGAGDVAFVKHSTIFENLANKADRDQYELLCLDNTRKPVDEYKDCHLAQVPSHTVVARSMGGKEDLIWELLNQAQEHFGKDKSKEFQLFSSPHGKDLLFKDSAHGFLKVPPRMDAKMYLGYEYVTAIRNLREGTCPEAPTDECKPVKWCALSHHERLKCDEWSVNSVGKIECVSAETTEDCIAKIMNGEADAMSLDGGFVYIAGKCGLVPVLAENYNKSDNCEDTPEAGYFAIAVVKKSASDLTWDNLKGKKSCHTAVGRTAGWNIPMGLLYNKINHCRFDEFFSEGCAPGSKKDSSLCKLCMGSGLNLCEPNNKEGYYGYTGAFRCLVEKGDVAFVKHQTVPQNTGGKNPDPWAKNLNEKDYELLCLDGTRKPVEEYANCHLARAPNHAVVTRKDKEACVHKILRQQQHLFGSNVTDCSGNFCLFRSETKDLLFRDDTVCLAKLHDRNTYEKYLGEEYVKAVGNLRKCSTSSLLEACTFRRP

B1: SYN23-26 (designed binder)
peptide 1: FRGWAHIFFGPHVIYRGGSG
peptide 2: AHKVVPQRQIRHAYNRYGSG
modifications: not fully specified; C-terminal glycine joined to one of the two amines (alpha or epsilon) of a lysine linker; chain 1 pos 20 and chain 2 pos 20: the C-terminal Gly of each 20-mer is joined to the alpha or the epsilon amine of one branching lysine (about 1 nm spacing). The lysine is followed by a C-terminal cysteine whose thiol is biotinylated for the array. The Lys-Cys core is left out of the …
On to B1, for which the equilibrium dissociation constant (Kd) turned out to be 150 nM in experiment [1], 141 nM in experiment [2] and 1 nM in experiment [3].

What is called Kd is the concentration at which binding is half-saturated.
